{
  "source": "patent US11879149B2",
  "about": "“Quantification method of ethanolamine phosphate, oxidoreductase for quantification, composition for quantification, kit for quantification and sensor for quantification” (KIKKOMAN CORPORATION, priority 2018, dated 2024)",
  "key": {"[1]": {"test": "Dehydrogenase activity measurement of AgPEAOX (1-MPES/WST-1, A438)", "type": "biochemical", "conditions": "pH 8.5; final concentration of 50 mM EAP; 37° C.", "method": "After incubation of 609 μl of the reagent consisting of the composition of Table 3 for 5 minutes at 37° C., 21 μl of the substrate solution (1500 mM EAP) was added and mixed, and the amount of change at A438 (ΔAS) per 1 minute at 37° C. was measured using the spectrophotometer (U-3900, manufactured by Hitachi High-Tech Science Corporation).\nNext, 21 μl of ion-exchanged water was added instead of the substrate solution and mixed, and the amount of change at A438 (ΔA0) per 1 minute at 37° C. was measured. 1-methoxy-5-ethylphenazinium ethyl sulfate (1-MPES), and 2-(4-iodophenyl)-3-(4-nitrophenyl)-5-(2,4-disulfophenyl)-2H-tetrazolium monosodium salt (WST-1) manufactured by DOJINDO LABORATORIES were used.\nDehydrogenase activity was calculated based on the following formula: Dehydrogenase activity (U/ml)=(ΔAS−ΔA0)×630×df/(37.0×x)=17.0×(ΔAS−ΔA0)×df/x • 37.0: Millimolar extinction coefficient (mM^−1 cm^−1) of WST-1 formazan dye for 438 nm-Wavelength Light • df: Dilution rate of enzyme solution (Quantification of EAP by AgPEAOX)"}, "[2]": {"test": "Oxidase activity measurement and pH dependence of AgPEAOX (4-AA/TOOS/POD, A555)", "type": "biochemical", "method": "Oxidase activity was measured for the expressed, purified AgPEAOX by the methods described above. After incubating 609 μl of a reagent consisting of the composition of Table 5 at 37° C. for 5 minutes, 21 μl of a substrate solution (1500 mM EAP) was added and mixed, and the amount of change at A555 (ΔAS) per 1 minute at 37° C. was measured using the spectrophotometer (U-3900, manufactured by Hitachi High-Tech Science Corporation).\nNext, 21 μl of ion-exchanged water was added instead of the substrate solution and mixed, and the amount of change at A555 (ΔA0) per 1 minute at 37° C. was measured. […]\nThe oxidase activity was calculated based on the following formula: Oxidase activity (U/ml)=(ΔAS−ΔA0)×630×df/(39.2×0.5×x)=32.1×(ΔAS−ΔA0)×df/x • 39.2: Millimolar extinction coefficient (mM^−1cm^−1) of 4-AA-TOOS Condensation dye for 555 nm-wavelength light • df: Dilution rate of enzyme solution (pH-Dependence Measurement of Catalytic Reaction of AgPEAOX)\nWhen the pH dependence of catalytic reaction of AgPEAOX was measured, the activity was measured by replacing Bicine-NaOH buffer solution pH 8.5 contained in the reagent for activity measurement in Table 5 with a potassium phosphate buffer solution, MOPS-NaOH buffer solution, or Bicine-NaOH adjusted to a predetermined pH."}},
  "data": [
    {"substance": "AgPEAOX: phenylethylamine oxidase derived from Arthrobacter globiformis, UniProt ID P46881, SEQ ID NO: 9", "values": [
      {"measurement": "dehydrogenase activity of purified AgPEAOX solution", "setting": "[1]", "value": "0.069 U/ml (*purified AgPEAOX solution)"},
      {"measurement": "oxidase activity of purified AgPEAOX solution", "setting": "[2]; pH 8.5, final concentration of 50 mM EAP, 37° C.", "value": "2.29 U/ml (*purified AgPEAOX solution)"},
      {"measurement": "optimum pH for the catalytic reaction (oxidase activity)", "setting": "[2]; potassium phosphate, MOPS-NaOH or Bicine-NaOH buffers, FIG. 3", "value": 8.5}
    ]}
  ]
}
